Reference: US20230321261A1, “AXL-SPECIFIC ANTIBODY-DRUG CONJUGATES FOR CANCER TREATMENT” (GENMAB A/S, priority 2016, published 2023)

Assays:
[1] = tested on: LCLC-103H cells; assay: In vitro cytotoxicity (CellTiter-Glo, 5 days); assay type: cell-based, human; conditions: MMAE-conjugated antibodies
[2] = tested on: LCLC-103H xenograft tumors; assay: LCLC-103H xenograft model; assay type: in vivo, SCID mice
Procedure: 5 × 10^6 LCLC-103H (large cell lung carcinoma) tumor cells (obtained from Leibniz-Institut DSMZ-Deutsche Sammlung von Mikroorganismen und Zellkulturen GmbH (DSMZ)) in 200 µL PBS were injected subcutaneously in the right flank of female SCID mice. Starting 14-21 days after tumor cell inoculation, when the average tumor size was >100-200 mm^3 and distinct tumor growth was observed, a single injection with 1 mg/kg (20 µg/mouse) IgG1-AXL-vcMMAE antibodies (as described in Supplementary Example 1) or control (unconjugated IgG1-b12) was given intraperitoneally (100 µL/mouse). Tumor volume was determined at least two times per week. Tumor volumes (mm^3) were calculated from caliper (PLEXX) measurements as: 0.52 × (length) × (width)^2.
(§1) Tumor induction was performed by subcutaneous injection of 5 × 10^6 A431 or LCLC-103H tumor cells (both obtained from Leibniz-Institut - Deutsche Sammlung von Mikroorganismen und Zellkulturen GmbH (DSMZ)) in 200 µL PBS in the right flank of female SCID mice. Treatment was started 14-21 days after tumor cell inoculation, when the average tumor size was >100-200 mm^3 and distinct tumor growth was observed. Mice received a single injection or a total of 4 biweekly intraperitoneal injections with IgG1-AXL-vcMMAE ADCs or control antibody (unconjugated IgG1-b12), as indicated. Tumor volume was determined at least two times per week. Tumor volumes (mm^3) were calculated from caliper (PLEXX) measurements as: 0.52 × (length) × (width)^2.

[3] = tested on: A431 cells; conditions: MMAE-conjugated antibodies, 5 days
[4] = tested on: MDA-MB-231 cells; assay: In vitro cytotoxicity (CellTiter-Glo, 5 days); assay type: cell-based, human; conditions: MMAE-conjugated antibodies
[5] = tested on: PAXF1657 tumors; assay: PAXF1657 pancreas cancer PDX model; assay type: in vivo, NMRI nu/nu mice
[6] = tested on: A431 tumors; assay: A431 xenograft model (high Gas6); assay type: in vivo, SCID mice; conditions: 3 mg/kg
Procedure: as §1

B1: IgG1-AXL-148-vcMMAE (conjugate)
VH: EVQLLESGGGLVQPGGSLRLSCAASGFTFSSYAMTWVRQAPGKGLEWVSAISISGGSTFYADSVKGRFTISRDNSKNTLYLQMNSLRAEDTAVYYCRGYSGYVYDAFDFWGQGTMVTVSS
VL: DIQMTQSPSSLSASVGDRVTITCRASQGISNWLAWYQQKPEKAPKSLIYAASSLQSGVPSRFSGSGSGTDFTLTISSLQPEDFATYYCQQYNSYPLTFGGGTKVEIK
With B1 the “Cytotoxicity in LCLC-103H cells EC50” value [1] was 0.012 µg/mL, the “anti-tumor activity in the LCLC-103H xenograft model” value ([2]; 3 mg/kg (Example 13, FIG. 14A)) was “tumor regression” and the “anti-tumor activity in established SC LCLC-103H tumors” value ([2]; single injection 1 mg/kg intraperitoneally (Example 9)) was “tumor regression”. For the same molecule, the “Cytotoxicity EC50 (µg/mL) A431 (n=3) Mean” value [3] was 0.070 µg/mL, the “Cytotoxicity EC50 (µg/mL) MDA-MB231 (n=2) Mean” value [4] was 0.012 µg/mL and the “growth of PAXF1657 tumors compared to the control group” value ([5]; 2 mg/kg i.v., day 0) was “significantly reduced the growth”. For the same molecule, the “growth of PAXF1657 tumors” value ([5]; 4 mg/kg i.v., day 0) was “induced tumor regression”, the “anti-tumor activity in the PAXF1657 model (FIG. 10B, 10C)” value ([5]; mouse, in vivo) was “dose-dependent antitumor activity” and the “anti-tumor activity in the A431 xenograft model” value [6] was “growth inhibition”.
